{
  "source": "patent US20200263147A1",
  "key": {"[1]": {"biological_target": "UL37N, the N-terminal half (residues 1 to 496) of pseudorabies virus (PRV) UL37 (pseudorabies virus (PRV))", "test": "crystal structure, interface analysis calculated without the calcium ions"}, "[2]": {"biological_target": "UL37N, the N-terminal half (residues 1 to 496) of pseudorabies virus (PRV) UL37 (pseudorabies virus (PRV))", "test": "crystal structure, interface analysis (PISA), calcium present"}},
  "data": [
    {"substance": "UL37N, the N-terminal half (residues 1 to 496) of pseudorabies virus (PRV) UL37", "values": [
      {"measurement": "buried surface area", "setting": "[1]", "result": 1500, "unit": "Å2"},
      {"measurement": "buried surface area", "setting": "[2]", "result": 1730, "unit": "Å2"}
    ]}
  ]
}
